Test system: Escherichia coli TOP10
Assay: shrunken log2 fold change of peptide-encoding DNA abundance (4.5 h post-induction vs induction); higher = less antimicrobial activity (less host growth inhibition)
Conditions: time post-induction: 4.5 h; library: site-saturation at positions 5, 18, 19, 20
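Further: peptides expressed intracellularly from a pBAD plasmid library in pooled LB shake-flask culture, induced with 0.3% L-arabinose, DNA abundance read by NGS, three biological replicates, DESeq2 with apeglm shrinkage.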

Row | Sequence | shrunken log2 fold change
1 | RRIRPRPPRLPRPRPRPKNRPRP | 0.00526
2 | RRIRPRPPRLPRPRPRPKPQPRP | 0.397
3 | RRIRPRPPRLPRPRPRPKPSPRP | 0.699
4 | RRIRPRPPRLPRPRPRPKQAPRP | -0.0162
5 | RRIRPRPPRLPRPRPRPKSKPRP | -0.255
6 | RRIRPRPPRLPRPRPRPKSRPRP | 0.154
7 | RRIRPRPPRLPRPRPRPKTSPRP | 0.0127
8 | RRIRPRPPRLPRPRPRPKTTPRP | 0.507
9 | RRIRPRPPRLPRPRPRPKVLPRP | 0.038
10 | RRIRPRPPRLPRPRPRPKVNPRP | -0.148
11 | RRIRPRPPRLPRPRPRPKVYPRP | -0.292
12 | RRIRPRPPRLPRPRPRPKWGPRP | 0.0577
13 | RRIRPRPPRLPRPRPRPKWQPRP | 0.225
14 | RRIRPRPPRLPRPRPRPKWSPRP | -0.113
15 | RRIRPRPPRLPRPRPRPLAYPRP | -0.074
16 | RRIRPRPPRLPRPRPRPLCHPRP | -0.139
17 | RRIRPRPPRLPRPRPRPLDMPRP | -0.142
18 | RRIRPRPPRLPRPRPRPLDPPRP | 0.201
19 | RRIRPRPPRLPRPRPRPLFCPRP | -0.0561
20 | RRIRPRPPRLPRPRPRPLFNPRP | -0.444
21 | RRIRPRPPRLPRPRPRPLGHPRP | 0.163
22 | RRIRPRPPRLPRPRPRPLGPPRP | 0.153

Row | Sequence | shrunken log2 fold change
23 | RRIRPRPPRLPRPRPRPLHAPRP | 0.282
24 | RRIRPRPPRLPRPRPRPLHEPRP | 0.236
25 | RRIRPRPPRLPRPRPRPLHHPRP | -0.0808
26 | RRIRPRPPRLPRPRPRPLITPRP | -0.357
27 | RRIRPRPPRLPRPRPRPLLDPRP | 0.0537
28 | RRIRPRPPRLPRPRPRPLPSPRP | 0.0677
29 | RRIRPRPPRLPRPRPRPLRMPRP | 0.596
30 | RRIRPRPPRLPRPRPRPLRRPRP | 0.805
31 | RRIRPRPPRLPRPRPRPLSEPRP | 0.126
32 | RRIRPRPPRLPRPRPRPLSKPRP | 0.14
33 | RRIRPRPPRLPRPRPRPLSMPRP | -0.33
34 | RRIRPRPPRLPRPRPRPLSTPRP | -0.0907
35 | RRIRPRPPRLPRPRPRPLVKPRP | -0.0409
36 | RRIRPRPPRLPRPRPRPLYDPRP | 2.73
37 | RRIRPRPPRLPRPRPRPMAVPRP | 0.0404
38 | RRIRPRPPRLPRPRPRPMDWPRP | 0.432
39 | RRIRPRPPRLPRPRPRPMGFPRP | -0.0125
40 | RRIRPRPPRLPRPRPRPMKLPRP | -0.0874
41 | RRIRPRPPRLPRPRPRPMLMPRP | 0.459
42 | RRIRPRPPRLPRPRPRPMMLPRP | -0.143
43 | RRIRPRPPRLPRPRPRPMPVPRP | 0.0347
44 | RRIRPRPPRLPRPRPRPMQRPRP | 0.195

Row | Sequence | shrunken log2 fold change
45 | RRIRPRPPRLPRPRPRPMSEPRP | -0.327
46 | RRIRPRPPRLPRPRPRPMVCPRP | -0.0948
47 | RRIRPRPPRLPRPRPRPMWIPRP | -0.237
48 | RRIRPRPPRLPRPRPRPMWLPRP | 0.217
49 | RRIRPRPPRLPRPRPRPMYEPRP | -0.527
50 | RRIRPRPPRLPRPRPRPMYLPRP | -0.257
51 | RRIRPRPPRLPRPRPRPMYNPRP | -0.639
52 | RRIRPRPPRLPRPRPRPMYQPRP | -0.207
53 | RRIRPRPPRLPRPRPRPNCGPRP | -0.0429
54 | RRIRPRPPRLPRPRPRPNCMPRP | -0.16
55 | RRIRPRPPRLPRPRPRPNCTPRP | -0.0727
56 | RRIRPRPPRLPRPRPRPNFFPRP | 0.323
57 | RRIRPRPPRLPRPRPRPNHMPRP | -0.319
58 | RRIRPRPPRLPRPRPRPNIMPRP | -0.694
59 | RRIRPRPPRLPRPRPRPNKVPRP | -0.1
60 | RRIRPRPPRLPRPRPRPNLHPRP | -0.203
61 | RRIRPRPPRLPRPRPRPNLTPRP | 0.0262
62 | RRIRPRPPRLPRPRPRPNMPPRP | -0.405
63 | RRIRPRPPRLPRPRPRPNNDPRP | -0.544
64 | RRIRPRPPRLPRPRPRPNNMPRP | -0.412
65 | RRIRPRPPRLPRPRPRPNSGPRP | 0.0788
66 | RRIRPRPPRLPRPRPRPNTAPRP | -0.23

Row | Sequence | shrunken log2 fold change
67 | RRIRPRPPRLPRPRPRPNVAPRP | -0.215
68 | RRIRPRPPRLPRPRPRPNVDPRP | -0.0229
69 | RRIRPRPPRLPRPRPRPNWQPRP | 0.131
70 | RRIRPRPPRLPRPRPRPNYMPRP | -0.737
71 | RRIRPRPPRLPRPRPRPNYYPRP | -0.468
72 | RRIRPRPPRLPRPRPRPPAVPRP | 0.37
73 | RRIRPRPPRLPRPRPRPPDDPRP | 0.142
74 | RRIRPRPPRLPRPRPRPPDEPRP | 0.444
75 | RRIRPRPPRLPRPRPRPPDQPRP | 0.601
76 | RRIRPRPPRLPRPRPRPPDWPRP | 0.577
77 | RRIRPRPPRLPRPRPRPPFDPRP | 0.228
78 | RRIRPRPPRLPRPRPRPPHAPRP | 0.589
79 | RRIRPRPPRLPRPRPRPPHMPRP | 0.214
80 | RRIRPRPPRLPRPRPRPPIAPRP | 0.27
81 | RRIRPRPPRLPRPRPRPPLMPRP | 0.199
82 | RRIRPRPPRLPRPRPRPPPDPRP | 0.622
83 | RRIRPRPPRLPRPRPRPPPHPRP | 0.657
84 | RRIRPRPPRLPRPRPRPPQLPRP | 0.378
85 | RRIRPRPPRLPRPRPRPPRHPRP | 0.278
86 | RRIRPRPPRLPRPRPRPPRLPRP | 0.406
87 | RRIRPRPPRLPRPRPRPPTSPRP | 0.276
88 | RRIRPRPPRLPRPRPRPPVLPRP | -0.0339

Row | Sequence | shrunken log2 fold change
89 | RRIRPRPPRLPRPRPRPPWAPRP | 1.32
90 | RRIRPRPPRLPRPRPRPPWEPRP | 0.0889
91 | RRIRPRPPRLPRPRPRPPYGPRP | -0.268
92 | RRIRPRPPRLPRPRPRPPYNPRP | -0.495
93 | RRIRPRPPRLPRPRPRPQAMPRP | 0.132
94 | RRIRPRPPRLPRPRPRPQASPRP | -0.137
95 | RRIRPRPPRLPRPRPRPQGNPRP | -0.146
96 | RRIRPRPPRLPRPRPRPQICPRP | -0.0262
97 | RRIRPRPPRLPRPRPRPQKEPRP | 0.0431
98 | RRIRPRPPRLPRPRPRPQKKPRP | -0.113
99 | RRIRPRPPRLPRPRPRPQLGPRP | 0.159
100 | RRIRPRPPRLPRPRPRPQLNPRP | -0.0703
101 | RRIRPRPPRLPRPRPRPQLRPRP | -0.0759
102 | RRIRPRPPRLPRPRPRPQNHPRP | 0.181
103 | RRIRPRPPRLPRPRPRPQPRPRP | 0.603
104 | RRIRPRPPRLPRPRPRPQQHPRP | -0.0726
105 | RRIRPRPPRLPRPRPRPQQMPRP | -0.00373
106 | RRIRPRPPRLPRPRPRPQQTPRP | 0.183
107 | RRIRPRPPRLPRPRPRPQQWPRP | 0.182
108 | RRIRPRPPRLPRPRPRPQVWPRP | 0.202
109 | RRIRPRPPRLPRPRPRPQYTPRP | -0.813
